Target: TLR2/6 receptor expressed on NIH 3T3 TLR2/6 receptor cells (whole-cell sensor elements, printed or pipetted)
Test: fluorescence of rhodamine-labeled pyrogen bound to printed or pipetted receptor cells on a membrane, against the control cell line and membrane; after drying, ethanol fixing or storage at 4° C.

Q: For “Pam3CSK4 with rhodamine labeling (peptide)”, which delta of the fluorescence intensity is on record?
A: Its delta of the fluorescence intensity is over 3000 a.u.
